The series concerns ATP. The series can be described thus: switch fluorescence ratio, 500 uM ATP over buffer (Cy3 cluster intensity, sum of 5 cycles each) (fold (ratio)); higher = stronger signal-on switching upon ATP binding; sequences stand for … in TCGTCGGCAGCGTCAGATGTGTATAAGAGACAGTTTTTTTTTTTTTTTTTTTTTTTTT…TC. Conditions: aptamer strand: ATP DNA aptamer (quencher-CACCTGGGGGAGTATTGCGGAGGAAGG + anchor), 100 nM annealed; ATP concentration: 500 uM. In outline: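 Cy3-labelled switching-strand clusters on a modified Illumina MiSeq flow-cell were annealed to 100 nM quencher-labelled ATP aptamer, imaged in selection buffer, then imaged after 15 min with 500 uM ATP at 22 °C. Five buffer/ATP cycles ran, with NaOH stripping and re-annealing between them. The fluorescence ratio is summed target-cycle over summed buffer-cycle Cy3 intensity per cluster, averaged per switch-domain sequence. Clusters outside 100-1000 RFU were excluded.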

± gives the standard deviation of the averaged measurements.
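Further: ATP exposure 15 min at 22 °C before imaging.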

CGTTTGTATC: the switch fluorescence ratio turned out to be 1.02 ± 0.022.
Take CGTTTGTCGG: the switch fluorescence ratio came to 1.01 ± 0.059.
Turning to CGTTTGTCGT, the switch fluorescence ratio is 1.04 ± 0.031.
For CGTTTGTCTA, the switch fluorescence ratio came out at 1.01 ± 0.051.
Take CGTTTGTTTT: the switch fluorescence ratio was determined as 1 ± 0.041.
CGTTTTATTG: the switch fluorescence ratio was 0.99 ± 0.049.
Under CGTTTTGCAG stands 1.03 ± 0.032; under CGTTTTGCAT, 1.09 ± 0.11; under CGTTTTGTTA, 0.977 ± 0.028.
Take CGTTTTGTTG: the switch fluorescence ratio was 0.998 ± 0.014.
In the case of CGTTTTTAAA, the switch fluorescence ratio was determined as 1.02 ± 0.04.
Under CGTTTTTACA stands 1 ± 0.015.
Consider CGTTTTTATT, for which the switch fluorescence ratio came out at 1.01 ± 0.015.
For CGTTTTTCGT, the switch fluorescence ratio was determined as 0.9779 ± 0.0038.
Turning to CGTTTTTGGA, the switch fluorescence ratio is 0.966 ± 0.018.
As for CGTTTTTGTT, the switch fluorescence ratio was 1 ± 0.025.
With CGTTTTTTCG the figure was 1 ± 0.075; with CGTTTTTTCT, 0.974 ± 0.015.
With CGTTTTTTTA the figure was 0.992 ± 0.018.
For the sequence CGTTTTTTTC, the switch fluorescence ratio was found to be 1.007 ± 0.01.
Under CTAAAAGAGG stands 0.997 ± 0.019; under CTAAAAGGGG, 1.02 ± 0.021.
CTAAAGTACT: the switch fluorescence ratio came out at 1.11 ± 0.041.
Under CTAAATATTG stands 0.989 ± 0.015.
Turning to CTAACGCGCA, the switch fluorescence ratio stood at 1.11 ± 0.0043.
Under CTAAGCCCGG stands 1 ± 0.011.
For the sequence CTAAGGGAAG, the switch fluorescence ratio came to 0.9781 ± 0.00035.
Regarding CTAAGTATGG, the switch fluorescence ratio turned out to be 0.9938 ± 0.0096.
Under CTAATAGTTT stands 1 ± 0.032; under CTAATATTAA, 0.999 ± 0.018.
CTAATCGCTG: the switch fluorescence ratio was determined as 1.05 ± 0.034.
On to CTAATTAGAT, for which the switch fluorescence ratio was 1 ± 0.022.
Regarding CTAATTATGA, the switch fluorescence ratio worked out at 1.01 ± 0.048.
Under CTAATTCTG stands 0.98 ± 0.018; under CTAATTGCGG, 1.01 ± 0.013; under CTAATTGTTT, 0.973 ± 0.025.
As to CTAATTTACA, the switch fluorescence ratio stood at 1.081 ± 0.0097.
In the case of CTAATTTGCT, the switch fluorescence ratio worked out at 1.04 ± 0.056.
Consider CTACAAAGGG, for which the switch fluorescence ratio is 1.005 ± 0.0037.
Under CTACAGGGGG stands 1.08 ± 0.018; under CTACGATCGA, 1.02 ± 0.015.
For the sequence CTACGGGCTG, the switch fluorescence ratio stood at 0.9898 ± 0.0069.
As for CTACTTTAGA, the switch fluorescence ratio came out at 0.993 ± 0.036.
With CTAGAAAGGG the figure was 0.999 ± 0.02; with CTAGAAGGCG, 1.02 ± 0.052; with CTAGAATAGG, 0.985 ± 0.028.
With CTAGACAGTT the figure was 0.997 ± 0.02; with CTAGAGGCTG, 1.03 ± 0.073; with CTAGAGGGAT, 1.02 ± 0.038.
With CTAGAGGGTA, the switch fluorescence ratio was 0.98923 ± 0.00094.
Consider CTAGATTCGT, for which the switch fluorescence ratio was found to be 0.996 ± 0.017.
With CTAGCGAGGG the figure was 1.01 ± 0.014; with CTAGCGGCCA, 0.991 ± 0.012; with CTAGCGGGGG, 0.993 ± 0.034.
Under CTAGCTATGT stands 1 ± 0.067; under CTAGGAGTTT, 0.999 ± 0.011.
In the case of CTAGGCAATG, the switch fluorescence ratio stood at 1.44 ± 0.67.
Regarding CTAGGCCTGG, the switch fluorescence ratio is 1.013 ± 0.0081.
In the case of CTAGGGGACG, the switch fluorescence ratio was 1.03 ± 0.032.
As to CTAGGTAACG, the switch fluorescence ratio stood at 1.02 ± 0.033.
For the sequence CTAGGTCGGC, the switch fluorescence ratio amounted to 0.994 ± 0.042.
With CTAGGTGGCT the figure was 1.02 ± 0.073; with CTAGGTGTG, 1.01 ± 0.082; with CTAGGTTATG, 0.978 ± 0.01.
Consider CTAGGTTGAG, for which the switch fluorescence ratio stood at 0.983 ± 0.019.
With CTAGTAGGGG the figure was 0.984 ± 0.022.

Source of the values: the supplement of paper PMC10126150.
